The supplement of paper PMC10126150
± gives the standard deviation of the averaged measurements.

tested on: ATP; assay: switch fluorescence ratio, 500 uM ATP over buffer (Cy3 cluster intensity, sum of 5 cycles each) (fold (ratio)); higher = stronger signal-on switching upon ATP binding; sequences stand for … in TCGTCGGCAGCGTCAGATGTGTATAAGAGACAGTTTTTTTTTTTTTTTTTTTTTTTTT…TC; details: aptamer strand: ATP DNA aptamer (quencher-CACCTGGGGGAGTATTGCGGAGGAAGG + anchor), 100 nM annealed; ATP concentration: 500 uM
Procedure, shortened: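 Cy3-labelled switching-strand clusters on a modified Illumina MiSeq flow-cell were annealed to 100 nM quencher-labelled ATP aptamer, imaged in selection buffer, then imaged after 15 min with 500 uM ATP at 22 °C. Five buffer/ATP cycles ran, with NaOH stripping and re-annealing between them. The fluorescence ratio is summed target-cycle over summed buffer-cycle Cy3 intensity per cluster, averaged per switch-domain sequence. Clusters outside 100-1000 RFU were excluded.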
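Note: ATP exposure 15 min at 22 °C before imaging.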

In order of falling switch fluorescence ratio:
1. GGAGCATGAG  2.47 ± 0.14
2. GGCGCATTAT  1.66 ± 0.061
3. GGCCCGTTAC  1.63 ± 0.2
4. GGCACCTACG  1.53 ± 0.14
5. GGCAATCACC  1.402 ± 0.0063
6. GGAGGGACTT  1.39 ± 0.68
7. GGATAAAGAC  1.37 ± 0.41
8. GGCAGGGGAT  1.33 ± 0.6
9. GGCAATATGG  1.229 ± 0.011
10. GGAGCATGGG  1.19 ± 0.04
11. GGATGAGCGA  1.18 ± 0.19
12. GGCAGTGTAC  1.18 ± 0.12
13. GGCCCCGGGT  1.18 ± 0.057
14. GGCCGGAATT  1.17 ± 0.19
15. GGCTCAGGGG  1.16 ± 0.035
16. GGATACTCGC  1.126 ± 0.01
17. GGAGTGGGAC  1.12 ± 0.14
18. GGAGGGGGGC  1.09 ± 0.16
19. GGAGTTCGTT  1.09 ± 0.052
20. GGCATAACAC  1.093 ± 0.0088
21. GGCGGGGTGG  1.09 ± 0.12
22. GGCGGCAAAA  1.07 ± 0.042
23. GGCGGGGGCG  1.07 ± 0.024
24. GGAGCAGCTA  1.06 ± 0.028
25. GGATTAGTGC  1.06 ± 0.039
26. GGATTTATTT  1.06 ± 0.026
27. GGCGAAATGG  1.06 ± 0.059
28. GGAGAGGGTC  1.049 ± 0.0064
29. GGAGCGCTGG  1.05 ± 0.02
30. GGATACGGGA  1.05 ± 0.084
31. GGCTACCTTG  1.047 ± 0.0038
32. GGAGACGATA  1.04 ± 0.0032
33. GGATACTGCA  1.043 ± 0.0054
34. GGATGCAGGA  1.04 ± 0.042
35. GGATTACCCA  1.04 ± 0.021
36. GGATTACCCT  1.04 ± 0.015
37. GGATTACGTA  1.04 ± 0.059
38. GGATTGGGTT  1.04 ± 0.069
39. GGCAGGGGGT  1.04 ± 0.088
40. GGCATTTCTA  1.04 ± 0.018
41. GGCCAAGGGG  1.04 ± 0.027
42. GGCCGCGCTG  1.04 ± 0.016
43. GGCGGGTAAT  1.04 ± 0.09
44. GGCTGATACG  1.04 ± 0.059
45. GGAGATCAGG  1.03 ± 0.027
46. GGATAAACGG  1.03 ± 0.082
47. GGATCATGGT  1.034 ± 0.007
48. GGATGGGCAA  1.026 ± 0.0026
49. GGATTAGCAG  1.034 ± 0.0075
50. GGCACTATAA  1.03 ± 0.023
51. GGCAGAGGCT  1.03 ± 0.031
52. GGCAGTAAGA  1.03 ± 0.024
53. GGCATGTGGT  1.0254 ± 0.001
54. GGCCGACAGC  1.03 ± 0.032
55. GGCGATGCGC  1.03 ± 0.018
56. GGCTCCGGGG  1.03 ± 0.024
57. GGAGAGTGGT  1.02 ± 0.023
58. GGAGATGGGG  1.02 ± 0.018
59. GGAGCGGCGG  1.02 ± 0.069
60. GGATCTGGTG  1.022 ± 0.0079
61. GGATGTTTCG  1.02 ± 0.02
62. GGCAAATTTT  1.02 ± 0.036
63. GGCAATTATT  1.02 ± 0.026
64. GGCAGACTTC  1.02 ± 0.041
65. GGCCAACCCG  1.0157 ± 0.00094
66. GGCCGATGCA  1.02 ± 0.021
67. GGCGCACGGG  1.02 ± 0.026
68. GGCGGATGGG  1.02 ± 0.026
69. GGCGGGCATG  1.021 ± 0.0011
70. GGCGTAAAGT  1.02 ± 0.036
71. GGCTGGGATG  1.02 ± 0.095
72. GGAGGCAGGA  1.015 ± 0.0036
73. GGAGGGGTTT  1.01 ± 0.04
74. GGAGTTTAGT  1.008 ± 0.0016
75. GGATAGGTTT  1.01 ± 0.034
76. GGATATCAAG  1.01 ± 0.016
77. GGATATTCCA  1.01 ± 0.067
78. GGATCAAAAG  1.01 ± 0.018
79. GGATGAAACT  1.012 ± 0.0044
80. GGATGCTTGT  1.009 ± 0.0092
81. GGATGGGTAA  1.01 ± 0.039
82. GGATGGTAGC  1.01 ± 0.013
83. GGATGTATAA  1.01 ± 0.028
84. GGATTAATCA  1.01 ± 0.035
85. GGATTGCGG  1.008 ± 0.01
86. GGCAAAAATT  1.01 ± 0.017
87. GGCAGTTTTG  1.01 ± 0.0062
88. GGCATCGTAA  1.01 ± 0.025
89. GGCCGGGGCT  1.01 ± 0.026
90. GGCCGGGTTA  1.01 ± 0.042
91. GGCCTAGGGA  1.01 ± 0.056
92. GGCGAGGGGC  1.01 ± 0.036
93. GGCGGAGTGC  1.01 ± 0.027
94. GGCGGATGGA  1.01 ± 0.037
95. GGCGGGGGAA  1.01 ± 0.059
96. GGCGGTATAA  1.01 ± 0.025
97. GGCGGTATGG  1.01 ± 0.026
98. GGCGGTGGCA  1.01 ± 0.026
99. GGCGTGCCGA  1.011 ± 0.0053
100. GGCTAAAACT  1.01 ± 0.015
101. GGCTAGGGGG  1.01 ± 0.022
102. GGCTATTAAA  1.01 ± 0.011
103. GGCTCTTATT  1.009 ± 0.0057
104. GGAGATATTT  1 ± 0.011
105. GGAGGAGGGG  1 ± 0.023
106. GGAGGGAGCG  1 ± 0.03
107. GGAGGGGGAA  1 ± 0.031
108. GGAGTAGGTA  1 ± 0.031
109. GGAGTGCCAG  1 ± 0.027
110. GGATACATGT  1.003 ± 0.0031
111. GGATGCTGGG  1 ± 0.015
112. GGATGGGTTT  1 ± 0.016
113. GGATTAAATC  1.001 ± 0.0086
114. GGATTGGACT  1 ± 0.019
115. GGATTTGATG  1 ± 0.031
116. GGATTTTCAC  1 ± 0.03
117. GGATTTTGGA  1 ± 0.018
118. GGCACGATGG  1 ± 0.035
119. GGCAGAATGA  1 ± 0.018
120. GGCAGGGGTT  1 ± 0.023
121. GGCCGGGGTA  1 ± 0.046
122. GGCCGGTAAA  1 ± 0.051
123. GGCCGTGGGC  1 ± 0.043
124. GGCGGTAAGA  1 ± 0.051
125. GGCGGTTTGT  1 ± 0.028
126. GGCGTTGGGG  1 ± 0.023
127. GGAGTATTAG  0.999 ± 0.072
128. GGATTATGTA  0.999 ± 0.026
129. GGCCCTTCGG  0.9987 ± 0.0091
130. GGATGCCAGT  0.998 ± 0.013
131. GGATAGTGTG  0.997 ± 0.014
132. GGATGCAGAT  0.997 ± 0.0094
133. GGATTAAAAT  0.997 ± 0.028
134. GGCCTTTTGA  0.997 ± 0.015
135. GGCGTCGAGG  0.997 ± 0.018
136. GGATGCTAGA  0.996 ± 0.024
137. GGATTAATTG  0.996 ± 0.037
138. GGATTGTTTT  0.996 ± 0.023
139. GGCAAAACAG  0.996 ± 0.032
140. GGCGGGGTTG  0.996 ± 0.019
141. GGCTCATAGT  0.996 ± 0.017
142. GGATTTTGTG  0.994 ± 0.021
143. GGCATACGTT  0.994 ± 0.026
144. GGAGATTGAA  0.992 ± 0.019
145. GGCTCTAGGG  0.9921 ± 0.0036
146. GGCGTTTGGG  0.991 ± 0.033
147. GGCTATATTT  0.991 ± 0.017
148. GGAGGTAGTC  0.99 ± 0.033
149. GGATATGTGG  0.99 ± 0.025
150. GGCAGGGTTT  0.99 ± 0.037
151. GGCAGTGTGC  0.99 ± 0.022
152. GGCGAAGTTC  0.99 ± 0.021
153. GGCTAATTGG  0.99 ± 0.026
154. GGCTGGGAGG  0.99 ± 0.014
155. GGAGACTCAA  0.988 ± 0.016
156. GGATAAAAGG  0.988 ± 0.011
157. GGCAGTTGCT  0.9882 ± 0.0056
158. GGCTGAATGG  0.988 ± 0.033
159. GGATTCGATT  0.987 ± 0.03
160. GGATGATGCC  0.986 ± 0.033
161. GGCCAGTTTG  0.986 ± 0.018
162. GGCCCATAGC  0.986 ± 0.018
163. GGAGAGTGCT  0.985 ± 0.015
164. GGATGTGAAA  0.9851 ± 0.0046
165. GGCGTGTCGC  0.9852 ± 0.0037
166. GGAGTGGGGG  0.984 ± 0.036
167. GGCGGGTGCG  0.984 ± 0.028
168. GGATGAGTTA  0.983 ± 0.015
169. GGATTTTTTG  0.983 ± 0.021
170. GGCGGATCAG  0.9827 ± 0.0023
171. GGAGGTAATT  0.981 ± 0.027
172. GGAGTCGGGC  0.981 ± 0.04
173. GGATTAGGCG  0.981 ± 0.018
174. GGCATTCGAT  0.981 ± 0.03
175. GGCCAAGGAA  0.9812 ± 0.0074
176. GGATTATTG  0.98 ± 0.032
177. GGATTATTTG  0.97982 ± 7.7e-05
178. GGCATTTGGA  0.98 ± 0.035
179. GGCGAAGGGT  0.98 ± 0.012
180. GGAGATTTGG  0.979 ± 0.011
181. GGAGTTCGGG  0.978 ± 0.021
182. GGCTCCAGCT  0.978 ± 0.028
183. GGATGGTGTG  0.977 ± 0.037
184. GGATTCTTGG  0.977 ± 0.024
185. GGCCCTAAGT  0.976 ± 0.026
186. GGATAGGGTA  0.974 ± 0.043
187. GGATATAAAT  0.972 ± 0.0099
188. GGATGGTGAG  0.972 ± 0.011
189. GGATGGGGAG  0.971 ± 0.02
190. GGATTAATGT  0.971 ± 0.022
191. GGAGTTTTTT  0.968 ± 0.029
192. GGCCGGACAT  0.9674 ± 0.0089
193. GGCGATGTAT  0.967 ± 0.0097
194. GGCCTCTTTT  0.966 ± 0.039
195. GGCCGTTGGG  0.965 ± 0.016
196. GGATCTAGAA  0.9644 ± 0.008
197. GGATAATGCT  0.9597 ± 0.0094
198. GGAGCGGTGG  0.955 ± 0.042
199. GGCAGTCGTA  0.955 ± 0.081
200. GGAGTTGCGG  0.9089 ± 0.0048
